The source of these data is article PMC10699770 (Science Advances, 2023).

In this test the target is full-length NAIP5 with an N-terminal Flag tag (mouse, UniProt Q9R016 1-1403). Put plainly: cryo-EM structure.
Sequence of full-length NAIP5 with an N-terminal Flag tag (Q9R016 whole entry): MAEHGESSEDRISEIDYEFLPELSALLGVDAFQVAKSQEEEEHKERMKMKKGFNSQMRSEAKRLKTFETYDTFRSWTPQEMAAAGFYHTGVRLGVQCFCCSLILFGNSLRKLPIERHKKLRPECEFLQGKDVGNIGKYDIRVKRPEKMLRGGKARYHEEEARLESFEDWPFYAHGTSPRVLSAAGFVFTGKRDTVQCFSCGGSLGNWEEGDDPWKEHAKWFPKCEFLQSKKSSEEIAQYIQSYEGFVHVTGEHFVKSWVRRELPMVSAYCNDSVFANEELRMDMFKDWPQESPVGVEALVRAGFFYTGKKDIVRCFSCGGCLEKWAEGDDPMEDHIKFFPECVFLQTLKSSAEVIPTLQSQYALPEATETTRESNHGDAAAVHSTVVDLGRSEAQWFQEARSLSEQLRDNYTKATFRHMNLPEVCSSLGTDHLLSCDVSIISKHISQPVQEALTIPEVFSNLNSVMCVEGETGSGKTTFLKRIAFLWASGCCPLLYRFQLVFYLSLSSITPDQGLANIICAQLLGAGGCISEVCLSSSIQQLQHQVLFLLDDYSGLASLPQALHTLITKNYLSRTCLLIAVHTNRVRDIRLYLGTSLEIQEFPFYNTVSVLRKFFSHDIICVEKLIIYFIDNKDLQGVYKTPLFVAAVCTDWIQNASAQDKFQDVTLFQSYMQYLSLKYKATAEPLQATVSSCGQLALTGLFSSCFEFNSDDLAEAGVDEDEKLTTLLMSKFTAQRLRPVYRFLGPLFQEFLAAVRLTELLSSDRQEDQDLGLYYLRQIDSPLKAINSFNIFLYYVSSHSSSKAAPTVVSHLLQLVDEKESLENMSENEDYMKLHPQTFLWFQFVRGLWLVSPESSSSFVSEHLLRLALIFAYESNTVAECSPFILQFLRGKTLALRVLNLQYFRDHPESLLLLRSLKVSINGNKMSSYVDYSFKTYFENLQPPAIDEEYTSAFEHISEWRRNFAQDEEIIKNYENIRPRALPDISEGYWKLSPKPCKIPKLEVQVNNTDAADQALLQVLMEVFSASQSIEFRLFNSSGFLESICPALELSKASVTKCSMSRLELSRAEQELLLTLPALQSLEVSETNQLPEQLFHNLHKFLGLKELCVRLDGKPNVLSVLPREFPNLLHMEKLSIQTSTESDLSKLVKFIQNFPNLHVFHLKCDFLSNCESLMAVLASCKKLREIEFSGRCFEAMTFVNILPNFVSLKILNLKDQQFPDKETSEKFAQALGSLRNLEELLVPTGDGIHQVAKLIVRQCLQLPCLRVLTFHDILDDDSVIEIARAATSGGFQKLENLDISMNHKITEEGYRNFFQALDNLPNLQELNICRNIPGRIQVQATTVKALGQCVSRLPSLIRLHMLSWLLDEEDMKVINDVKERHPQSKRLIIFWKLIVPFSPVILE

B1: full-length S. typhimurium flagellin FliC with N-terminal His tag (natural protein)
chain: MAQVINTNSLSLLTQNNLNKSQSALGTAIERLSSGLRINSAKDDAAGQAIANRFTANIKGLTQASRNANDGISIAQTTEGALNEINNNLQRVRELAVQSANSTNSQSDLDSIQAEITQRLNEIDRVSGQTQFNGVKVLAQDNTLTIQVGANDGETIDIDLKQINSQTLGLDTLNVQQKYKVSDTAATVTGYADTTIALDNSTFKASATGLGGTDQKIDGDLKFDDTTGKYYAKVTVTGGTGKDGYYEVSVDKTNGEVTLAGGATSPLTGGLPATATEDVKNVQVANADLTEAKAALTAAGVTGTASVVKMSYTDNNGKTIDGGLAVKVGDDYYSATQNKDGSISINTTKYTADDGTSKTALNKLGGADGKTEVVSIGGKTYAASKAEGHNFKAQPDLAEAAATTTENPLQKIDAALAQVDTLRSDLGAVQNRFNSAITNLGNTVNNLTSARSRIEDSDYATEVSNMSRAQILQQAGTSVLAQANQVPQNVLSLLR
In the case of B1, the binding result is “binds”.
